Reference: patent US11260115B1, “Peptides and combination of peptides for use in immunotherapy against CLL and other cancers” (immatics biotechnologies GmbH, priority 2015, dated 2022)

These substances were tested against HLA-A*02:01 (Homo sapiens, UniProt P04439, D140Y/D185E/D98H/E176V/E277Q/G131W/G231S/I119V/I121R/I166T/I218V/L300P/L318F/N151K/N90K/P208A/P217A/Q86G/Q94H/R138H/R169H/T345S) (assay: MHC binding assay (UV-ligand exchange, β2m ELISA, peptide exchange yield)). Settings: binding to HLA-A*02:01.
Excerpt: Candidate peptides for T cell based therapies according to the present invention were further tested for their MHC binding capacity (affinity). The individual peptide-MHC complexes were produced by UV-ligand exchange, where a UV-sensitive peptide is cleaved upon UV-irradiation, and exchanged with the peptide of interest as analyzed. Only peptide candidates that can effectively bind and stabilize the peptide-receptive MHC molecules prevent dissociation of the MHC complexes. To determine the yield of the exchange reaction, an ELISA was performed based on the detection of the light chain (β2m) of stabilized MHC complexes. The assay was performed as generally described in Rodenko et al. (Rodenko et al., 2006).
96 well MAXISorp plates (NUNC) were coated over night with 2 ug/ml streptavidin in PBS at room temperature, washed 4× and blocked for 1 h at 37° C. in 2% BSA containing blocking buffer. Refolded HLA-A*02:01/MLA-001 monomers served as standards, covering the range of 15-500 ng/ml. Peptide-MHC monomers of the UV-exchange reaction were diluted 100 fold in blocking buffer. Samples were incubated for 1 h at 37° C., washed four times, incubated with 2 ug/ml HRP conjugated anti-β2m for 1 h at 37° C., washed again and detected with TMB solution that is stopped with […]. Absorption was measured at 450 nm. Candidate peptides that show a high exchange yield (preferably higher than 50%, most preferred higher than 75%) are generally preferred for a generation and production of antibodies or fragments thereof, and/or T cell receptors or fragments thereof, as they show sufficient avidity to the MHC molecules and prevent dissociation of the MHC complexes.
Table 11: MHC class I binding scores. Binding of HLA-class I restricted peptides to HLA-A*02:01 was ranged by peptide exchange yield: ≥10%=+; ≥20%=++; ≥50=+++; ≥75%=++++

Substance | Peptide Exchange (MHC class I binding score, peptide exchange yield)
1 (AIPPSFASIFL; listed as Homo sapiens) [compound 1] | “+++” (>50 = +++)
3 (VIAELPPKV; listed as Homo sapiens) [compound 3] | “++” (>20% = ++)
4 (VIAELPPKVSV; listed as Homo sapiens) [compound 4] | “+++” (>50 = +++)
5 (ALIFKIASA; listed as Homo sapiens) [compound 5] | “+++” (>50 = +++)
6 (ALDTLEDDMTI; listed as Homo sapiens) [compound 6] | “+++” (>50 = +++)
7 (ALLERTGYTL; listed as Homo sapiens) [compound 7] | “+++” (>50 = +++)
8 (ALAASALPALV; listed as Homo sapiens) [compound 8] | “+++” (>50 = +++)
9 (ALCDTLITV; listed as Homo sapiens) [compound 9] | “+++” (>50 = +++)
10 (FVYGESVEL; listed as Homo sapiens) [compound 10] | “+++” (>50 = +++)
11 (ALFTFSPLTV; listed as Homo sapiens) [compound 11] | “+++” (>50 = +++)
12 (ALGEDEITL; listed as Homo sapiens) [compound 12] | “+++” (>50 = +++)
13 (VVDGMPPGV; listed as Homo sapiens) [compound 13] | “+++” (>50 = +++)
14 (ALLRLLPGL; listed as Homo sapiens) [compound 14] | “+++” (>50 = +++)
15 (ALPEVSVEA; listed as Homo sapiens) [compound 15] | “+++” (>50 = +++)
16 (ALPGGAAVAAV; listed as Homo sapiens) [compound 16] | “++++” (>75% = ++++)
18 (LLGEFSIKM; listed as Homo sapiens) [compound 18] | “+++” (>50 = +++)
19 (QVMEKLAAV; listed as Homo sapiens) [compound 19] | “+++” (>50 = +++)

Substance | Peptide Exchange (MHC class I binding score, peptide exchange yield)
20 (ALVDPGPDFVV; listed as Homo sapiens) [compound 20] | “+++” (>50 = +++)
21 (ALWAGLLTL; listed as Homo sapiens) [compound 21] | “+++” (>50 = +++)
22 (ALWDPVIEL; listed as Homo sapiens) [compound 22] | “+++” (>50 = +++)
23 (ALYLTEVFL; listed as Homo sapiens) [compound 23] | “++++” (>75% = ++++)
24 (AMAGDVVYA; listed as Homo sapiens) [compound 24] | “+++” (>50 = +++)
25 (ATYSGLESQSV; listed as Homo sapiens) [compound 25] | “++” (>20% = ++)
27 (AVLGLVWLL; listed as Homo sapiens) [compound 27] | “+++” (>50 = +++)
28 (AVLHLLLSV; listed as Homo sapiens) [compound 28] | “++” (>20% = ++)
29 (AVLQAVTAV; listed as Homo sapiens) [compound 29] | “+++” (>50 = +++)
30 (ELLEGSEIYL; listed as Homo sapiens) [compound 30] | “+++” (>50 = +++)
31 (ELMHGVAGV; listed as Homo sapiens) [compound 31] | “+++” (>50 = +++)
34 (YLPYIFPNI; listed as Homo sapiens) [compound 34] | “+++” (>50 = +++)
35 (FILPSSLYL; listed as Homo sapiens) [compound 35] | “+++” (>50 = +++)
36 (FILTHVDQL; listed as Homo sapiens) [compound 36] | “++++” (>75% = ++++)
37 (FIMEGGAMVL; listed as Homo sapiens) [compound 37] | “++++” (>75% = ++++)
38 (FIMEGGAMV; listed as Homo sapiens) [compound 38] | “+++” (>50 = +++)
39 (FLDALLTDV; listed as Homo sapiens) [compound 39] | “+++” (>50 = +++)

More lines, now with the values ahead:

Peptide Exchange (MHC class I binding score, peptide exchange yield) | Substance
“++” (>20% = ++) | 40 (FLDEDDMSL; listed as Homo sapiens) [compound 40]
“+++” (>50 = +++) | 41 (FLDPSLDPLL; listed as Homo sapiens) [compound 41]
“+++” (>50 = +++) | 42 (FLEEGGVVTV; listed as Homo sapiens) [compound 42]
“++++” (>75% = ++++) | 43 (FLLGPEALSFA; listed as Homo sapiens) [compound 43]
“+++” (>50 = +++) | 44 (FLLSINDFL; listed as Homo sapiens) [compound 44]
“+++” (>50 = +++) | 45 (FLPELPADLEA; listed as Homo sapiens) [compound 45]
“+++” (>50 = +++) | 46 (YIIDSAQAV; listed as Homo sapiens) [compound 46]
“++” (>20% = ++) | 47 (FLSDQPEPYL; listed as Homo sapiens) [compound 47]
“+++” (>50 = +++) | 48 (FLSPQQPPLL; listed as Homo sapiens) [compound 48]
“++++” (>75% = ++++) | 49 (FLTDLFAQL; listed as Homo sapiens) [compound 49]
“+++” (>50 = +++) | 50 (FLFEPVVKAFL; listed as Homo sapiens) [compound 50]
“++++” (>75% = ++++) | 51 (FLVEAPHDWDL; listed as Homo sapiens) [compound 51]
“++++” (>75% = ++++) | 52 (FLVETGFLHV; listed as Homo sapiens) [compound 52]
“+++” (>50 = +++) | 53 (FLWQHVELVL; listed as Homo sapiens) [compound 53]
“+++” (>50 = +++) | 55 (FMEPTLLML; listed as Homo sapiens) [compound 55]
“+++” (>50 = +++) | 56 (FVFEAPYTL; listed as Homo sapiens) [compound 56]
“+++” (>50 = +++) | 58 (YIQQGIFSV; listed as Homo sapiens) [compound 58]
“+++” (>50 = +++) | 59 (FVFGDENGTVSL; listed as Homo sapiens) [compound 59]
“+++” (>50 = +++) | 60 (FVLDHEDGLNL; listed as Homo sapiens) [compound 60]
“+++” (>50 = +++) | 61 (FVYFIVREV; listed as Homo sapiens) [compound 61]
“+++” (>50 = +++) | 62 (GIIDGSPRL; listed as Homo sapiens) [compound 62]
“+++” (>50 = +++) | 63 (SLAHVAGCEL; listed as Homo sapiens) [compound 63]
“+++” (>50 = +++) | 64 (KLLESVASA; listed as Homo sapiens) [compound 64]
“++” (>20% = ++) | 65 (GLDDMKANL; listed as Homo sapiens) [compound 65]
“+++” (>50 = +++) | 66 (SLAGGLDDMKA; listed as Homo sapiens) [compound 66]
“++” (>20% = ++) | 67 (GLDDVTVEV; listed as Homo sapiens) [compound 67]
“+” (>10% = +) | 68 (GLDQQFAGLDL; listed as Homo sapiens) [compound 68]
